{"source": "paper PMC2818599", "target": "HLA-DR DRB1 *1101 (human)", "assay": "radioligand binding", "note": "pIC50: −log10 of the molar value."}
{"substance": "HER-2/neu.59 (peptide)", "values": [{"measurement": "pIC50", "value": 7.52}]}
